For assay [1], the target named is T1, Tau 407-421 peptide (Truncated Asp421 Epitope of Tau).
T1 construct: Immobilized in the ELISA, analyte in the Biacore analysis
T1 peptide: HLSNVSSTGSIDMVD
The assay can be described thus: Biacore (SPR), peptide as analyte. (In general: Surface plasmon resonance follows binding to a sensor surface in real time, without labels.)

Assay [2] deals with T2, Tau 407-423 peptide (non-truncated Asp421 epitope).
T2 construct: Immobilized in the ELISA, analyte in the Biacore analysis
T2 peptide: HLSNVSSTGSIDMVDSP
The experiment in a line: Biacore (SPR), peptide as analyte.

Assay [3] has as its target T1, Tau 407-421 peptide (Truncated Asp421 …). The assay can be described thus: ELISA. An excerpt:
(§1) The data thus confirms the ability of Antibodies 1G11A10, 5G2A3 and 5G2G6 to immunospecifically bind to the Truncated Asp421 Epitope of Tau.
In general terms: ELISA stands for enzyme-linked immunosorbent assay.

Assay [4] has as its target T2, Tau 407-423 peptide (non-truncated …). The experiment in a line: ELISA, immobilized peptide.
From the text: as §1

Assay [5] has the same target. The experiment in a line: Biacore, peptide as analyte.

Substitutions are numbered along the chain they refer to.

A word on the Kd: it is the constant that tells how readily two partners part at equilibrium. Read a high Kd as a looser complex.

B1: Antibody 5G2A3 (antibody, V domains shown)
VH: EVKLVESGGGLVKPGGSLTLSCAASGFTFSSYAMSWVRQTPEKSLEWVASISSGGNTFYPDTVKGRFTISRDNARNILYLQMSGLRSEDTAIYYCARRGDPNMITTLFGYWGQGTLVTISA
VL: DVLMTQTPLSLPVSLGDQASISCRSSQSILHRNGNTYLDWFLLKPGQSPKLLIYKVSNRFSGVPDRFSGSGSGTDFTLKISRVEAEDLGVYYCFQGSHVPWTFGGGTKLEIK
notes: Hybridoma-derived monoclonal antibody; also called 5G2A3/5G2G6
B1: the values for the Kd in assay [1] and in assay [2] were 7.46 nM and 5070 nM, respectively.

B2: Antibody 1G10D2 (antibody, V domains shown)
VH: EVKLVESGGDLVTPGGSLKVSCAASGLTFSDSAMSWVRLTPEKRLEWVASISTGGATYYPDGLKGRFTISRDDARNILFLQMNSLRSEDTAMYYCTRRGVSSGNLFTYWGQGTLVTVSA
VL: B1 VL with H31N, R32S, D39E, F41Y, L43Q
Take B2: the binding result in assay [3] is recorded as “binds”; in assay [4], “no binding”.

B3: Antibody 1G11A10 (antibody, V domains shown)
VH: EVKLVESGGGLMKPGGSLKLSCAASGFTFSSYAMSWVRQSPEKRLEWVASISSGGQTYSPDSVKGRFTISRDNARNILYLQMRNLRSEDTAMYYCASRGDPTMTATLFVYWGQGTLVTVS
VL: B1 VL with L30I, H31N, R32S, D39E, F41Y, L43Q, A85T, V90I
notes: Hybridoma-derived monoclonal antibody
Turning to B3, in assay [5], the binding result is given as “no binding”. In assay [1], this molecule had a Kd of 1070 nM.

B4: Antibody 5B3C11 (antibody, V domains shown)
VH: EVQLVESGGGLVKPGGSLKLSCAASGFTFSNYALSWVRQTPEKRLEWVASISSGGNTYYPDSVKGRFTISRDNARNILYLQMSSLRSEDTAMFYCTSRGDTTLITTLFTYWGQGTLVTVSA
VL: B1 VL with S26N, R32S, F41Y, L43Q, K79R, V99I
notes: Tested as hybridoma culture supernatant
Consider B4, for which the binding result in assay [4] is on record as “no binding”.

For the origin of these results see patent publication US20210198349A1 (NEW YORK UNIVERSITY, published 2021).
